From patent US20070248607A1, “NEGATIVE IMMUNOMODULATION OF IMMUNE RESPONSES BY NKG2D-POSITIVE CD4+ CELLS” (priority 2005, published 2007)

What was measured:
Assay type in all cases: cell-based
NKG2D+ CD4+ T cells = experiment: NKG2D expression and expansion of activated CD4 T cells; conditions: for expansion / proliferation of NKG2D+ CD4+ T cells: anti-CD3 activated CD4 T cell cultures
Procedure: For the analysis of NKG2D expression in activated CD4 T cells, freshly isolated pure CD4^+ T cells were plated at 0.3×10^6/2 ml AIM-V medium (Gibco)/well in 24 well plates for various periods of time with or without the presence of mitogenic stimuli and/or the presence of NKG2D ligands. Mitogenic stimuli included either cross-linked anti-CD3 (plates were first coated with AffiniPure F(ab′)2 fragment goat anti-mouse IgG1, Fcγ fragment specific (Jackson ImmunoResearch Laboratories, Inc.) at 10 μg/ml in PBS over night at 4° C. followed by a 4 hr room temperature incubation with anti-CD3 (OKT3, Orthoclone, Ortho Biotech Products, L.P.) at 50 ng/ml (if not indicated otherwise), PHA (5 μg/ml), or PMA/Ionomycin. Ligand additions consisted of either irradiated CLR-MICA and control transfectants at a T cell:transfectant ratio of 5:1, or recombinant soluble MICA at 25 ng/ml if not indicated otherwise. Cells were harvested at various time points after the initiation of culture and tested for NKG2D, CD4 and CD3 coexpression using directly conjugated mAbs for standard three color flow cytometry.
(§1) For analysis of CD4^+ T cell proliferation in conjunction with NKG2D expression, 1×10^7 freshly isolated pure CD4^+ T cells/ml PBS were labeled with an equal volume of 2 μM CFSE (Molecular Probes) for 8 min at room temperature. CFSE was quenched with an equal volume of fetal calf serum for one min followed by three washes with AIM-V medium. CFSE labeled cells were then plated, stimulated and phenotypically analysed as described above. Additional ligands tested in this experimental setting included any of either C1R-MICB, ULBP-1, -2, -3, 4, or -5 transfectants, recombinant soluble MICB, or 5% soluble MIC containing serum from a MIC+ tumor patient and MIC− control serum. To test ligand specificity, ligand containing cultures were treated with either 10 μg/ml 6D4 (anti-MICA/B), 10 μg/ml 3F1 (anti-ULBP-1), or appropriately diluted isotype control immunoglobulins. In some experiments, ligand was replaced by solid-phase anti-NKG2D (1D11) at the concentrations ranging from 5-50 ng/ml. In some experiments, ligand/solid-phase mAb were added on day 1, 2 or 3 after the initiation of culture.

CD4 T cells = experiment: Cell cycle analysis by propidium iodide staining; conditions: anti-CD3 activated CD4 T cell cultures
NKG2D- CD4+ T cells = experiment: CD4 T cell proliferation (CFSE dilution, [3H]thymidine incorporation); conditions: anti-CD3 activated CD4 T cell cultures
Procedure: as §1
To assess inhibition of CD4^+ T cell proliferation by standard [^3H]thymidine incorporation experiments, freshly isolated pure CD4^+ T cells were plated at 1×10^5 cells/well in a 96 well flat bottom plate containing titrated cross-linked anti-CD3 (see above) or isotype control Ig with or without titrated recombinant soluble MIC. After 72 hrs at 37° C., plates were pulsed with 3 μCi of [^3H]thymidine (Perkin Elmer) for 12 hrs. Plates were harvested and samples analysed by liquid scintillation using Uni-Filter GF/C plates and a TopCount Counter (both from Packard). Counts from triplicates were averaged.

B1: sMICA: soluble MICA, NKG2D ligand added to CD4 T cell cultures (protein)
chain: EPHSLRYNLTVLSWDGSVQSGFLTEVHLDGQPFLRCDRQKCRAKPQGQWAEDVLGNKTWDRETRDLTGNGKDLRMTLAHIKDQKEGLHSLQEIRVCEIHEDNSTRSSQHFYYDGELFLSQNLETKEWTMPQSSRAQTLAMNVRNFLKEDAMKTKTHYHAMHADCLQELRRYLKSGVVLRRTVPPMVNVTRSEASEGNITVTCRASGFYPWNITLSWRQDGVSLSHDTQQWGDVLPDGNGTYQTWVATRICQGEEQRFTCYMEHSGNHSTHPVPSGK
NKG2D+ CD4+ T cells
  expansion / proliferation of NKG2D+ CD4+ T cells: expansion of NKG2D^+ CD4^+ T cells
NKG2D+ CD4+ T cells; listed as soluble MICA
  expansion / proliferation of NKG2D+ CD4+ T cells: proliferate
NKG2D+ CD4+ T cells; upon anti-CD3 activation
  NKG2D induction on normal CD4+ T cells: enhanced
CD4 T cells
  cell cycle distribution: partial cell cycle arrests in G0/G1
NKG2D- CD4+ T cells
  proliferation of NKG2D- CD4+ T cells: inhibition of NKG2D^− CD4^+ T cell proliferation
